Experimental data published in patent publication US20230072197A1 (KOREA UNIVERSITY RESEARCH AND BUSINESS FOUNDATION, published 2023).
Changes are numbered by the printed parent chain. Numbers in names are those of the source.

B1: Fc variant L309G/Q311L/M428L (bacterial display) (other)
chain: DKTHTCPPCPAPELLGGPSVFLFPPKPKDTLMISRTPEVTCVVVDVSHEDPEVKFNWYVDGVEVHNAKTKPREEQYNSTYRVVSVLTVGHLDWLNGKEYKCKVSNKALPAPIEKTISKAKGQPREPQVYTLPPSRDELTKNQVSLTCLVKGFYPSDIAVEWESNGQPENNYKTTPPVLDSDGSFFLYSKLTVDKSRWQQGNVFSCSVLHEALHNHYTQKSLSLSPGK
notes: also called Q311L in M428L and L309G Fc variant
B2: Fc variant L309G/Q311K/M428L (bacterial display) (other)
chain: B1 chain with L91K
notes: also called Q311K in M428L and L309G Fc variant
B3: Fc variant L309G/Q311I/M428L (bacterial display) (other)
chain: B1 chain with L91I
notes: also called Q311I in M428L and L309G Fc variant
B4: Fc variant L309G/Q311V/M428L (bacterial display) (other)
chain: B1 chain with L91V
notes: also called Q311V in M428L and L309G Fc variant
B5: Fc variant L309G/Q311H/M428L (bacterial display) (other)
chain: B1 chain with L91H
notes: also called Q311H in M428L and L309G Fc variant
B6: Fc variant L309G/Q311W/M428L (bacterial display) (other)
chain: B1 chain with L91W
notes: also called Q311W in M428L and L309G Fc variant
B7: Fc variant L309G/Q311T/M428L (bacterial display) (other)
chain: B1 chain with L91T
notes: also called Q311T in M428L and L309G Fc variant
B8: Fc variant L309G/Q311Y/M428L (bacterial display) (other)
chain: B1 chain with L91Y
notes: also called Q311Y in M428L and L309G Fc variant
B9: Fc variant L309G/Q311A/M428L (bacterial display) (other)
chain: B1 chain with L91A
notes: also called Q311A in M428L and L309G Fc variant

Target: human FcRn (probe in the FACS analysis of bacterially displayed Fc variants) (human, UniProt P55899 24-297; P61769 21-119, limits assumed)
Test: FACS of bacterially displayed Fc variants with human FcRn, pH 6.0

Binding result, binds:
B1
B2
B3
B4
B5
B6
B7
B8
B9
